{"source": "patent US7358088B2", "about": "“Peptides and compositions which modulate apoptosis” (ImmunoGen, Inc., priority 1995, dated 2008)", "key": {"Rat-1 cells": {"tested_on": "Rat-1 cells", "experiment": "Transient transfection cell killing assay (loss of β-galactosidase-positive blue cells)", "format": "cell-based", "details": "Rat-1 cells co-transfected with β-galactosidase marker plasmid, 24 hours post transfection, relative to control vector", "description": "(§1) The transient transfection assay procedure is similar to that previously described for detecting apoptosis induced by IL-1E-converting enzyme (Miura et al., Cell 75: 653-660 (1993); Kumar et al., Genes Dev. 8: 1613-1626 (1994); Wang et al., Cell 78: 739-750 (1994). One day prior to transfection, Rat-1 cells were plated in 24 well dishes at 3.5X10^4 cells/well. The following day, the cells were transfected with a marker plasmid encoding β-galactosidase (0.16 μg), in combination with an expression plasmid encoding Bak (0.42 μg), by the Lipofectamine procedure (Gibco/BRL). At 24 hours post transfection, cells were fixed and stained with X-Gal to detect J-galactosidase expression in cells that received plasmid DNA (Miura et al., supra). The number of blue cells was counted by microscopic examination and scored as either live (flat blue cells) or dead (round blue cells). The cell killing activity of Bak in this assay is manifested by a large reduction in the number of blue cells obtained relative to co-transfection of the β-gal plasmid with a control expression vector (i.e., with no bak cDNA insert).\nThe interpretation that loss of blue cells reflects the cell killing function of Bak is supported by a variety of observations: • 1. Rat-1 cells are rapidly killed by enforced Bak expression in stable transfection assays; • 2.\nEnforced bak expression induces apoptosis in stable Rat-1 cell lines transfected with an inducible bak expression plasmid. In order to more rapidly assess the cell killing function of a large number of bak mutants, a transient transfection assay was employed. Rat-1 cells were transfected with a marker plasmid encoding β-galactosidase, in combination with an expression plasmid encoding Bak, or various control plasmids."}, "[1]": {"tested_on": "Mouse Embryonic Fibroblasts (MEF) lacking functional p53", "experiment": "Transient transfection cell killing assay in p53-/- fibroblasts", "format": "cell-based", "details": "p53-/- transformed mouse fibroblasts, co-transfection with β-gal", "description": "(§2) Cells were fixed and stained with X-gal at 24 hours post-transfection, and the number of blue cells (β-galactosidase-positive) counted by microscopic examination. B. Mouse Embryonic Fibroblasts (MEF) lacking functional p53 (p53^−/−MEF) were co-transfected as described in(A). C. Hela cells, derived from cervical carcinoma, were co-transfected as described in (A). D. BT549 cells, derived from breast carcinoma, were co-transfected as described in (A).\nas §1, with “The cell killing activity of Bak in this assay is manifested by a large reduction in the number of blue cells obtained relative to co-transfection of the β-gal plasmid with a control expression vector (i.e., with no bak cDNA insert).” left out\n(§3) Bak cell killing activity was assessed in several additional cell lines. […]"}, "[2]": {"tested_on": "Hela (cervical carcinoma) cells", "experiment": "Transient transfection cell killing assay in Hela cells", "format": "cell-based, human", "description": "as §2\nas §1, with “The cell killing activity of Bak in this assay is manifested by a large reduction in the number of blue cells obtained relative to co-transfection of the β-gal plasmid with a control expression vector (i.e., with no bak cDNA insert).” left out\nas §3"}, "[3]": {"tested_on": "BT549 (breast carcinoma) cells", "experiment": "Transient transfection cell killing assay in BT549 cells", "format": "cell-based, human", "description": "as §2\nas §1, with “The cell killing activity of Bak in this assay is manifested by a large reduction in the number of blue cells obtained relative to co-transfection of the β-gal plasmid with a control expression vector (i.e., with no bak cDNA insert).” left out\nas §3"}, "Bcl-xL [4]": {"biological_target": "T1, Bcl-xL (Homo sapiens, UniProt Q07817)", "T1 sequence (Q07817 whole entry)": "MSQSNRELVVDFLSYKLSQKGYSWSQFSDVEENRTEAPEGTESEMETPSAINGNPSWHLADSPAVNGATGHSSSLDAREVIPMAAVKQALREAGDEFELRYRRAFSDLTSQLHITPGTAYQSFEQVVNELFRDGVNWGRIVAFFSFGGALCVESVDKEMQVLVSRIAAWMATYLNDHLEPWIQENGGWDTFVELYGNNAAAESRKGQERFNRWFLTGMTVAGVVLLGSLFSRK", "experiment": "Co-immunoprecipitation of epitope-tagged proteins from transfected COS cells", "format": "cell-based", "details": "anti-HA immunoprecipitation, western blot", "description": "B). Bak/Bcl-xL interactions detected in transfected cells. Plasmids expressing epitope-tagged forms of Bak and Bcl-xL (HA-Bak and Flag tag-Bcl-xL) were co-transfected into COS cells. HA-Bak was immunoprecipitated (anti-HA IP) from transfected cell lysates and associated Bcl-xL was detected by Western blot analysis with an anti-Flag tag antibody.\nCOS cells were grown in Dulbecco's modified Eagle's medium (Life Technologies, Inc.) supplemented with 10% bovine calf serum, 2% L-glutamine and 1% pen/strep (Life Technologies, Inc.). Cells were seeded at 2.0×10^5 cells/35 mm well and transfected with expression plasmids 24 hours later using Lipofectamine as described by the supplier (Life Technologies, Inc.). Bak (and Bak mutants) was expressed as a fusion protein with the HA epitope tag at its amino terminus. Bcl-xL was also expressed with an amino terminal epitope tag (Flag; Kodak). At 24 hours post-transfection, cells were washed with phosphate buffered saline and lysed in NP-40 Lysis buffer also containing 1 mM PMSF, […] pepstatin, and […] leupeptin. The lysates were incubated with anti-HA antibody (12CA5, Boehringer Mannheim) for 1 hour and with […] BSA-washed Protein A-agarose beads (50% slurry) for an additional hour. The beads were washed twice with NP-40 lysis buffer followed by two washes with NP-40 lysis buffer without NP-40. […]"}, "Bcl-xL [5]": {"biological_target": "T1, Bcl-xL", "experiment": "In vitro protein binding assay, 35S labeled protein with GST-Bcl-xL on glutathione-agarose beads", "set-up": "made in house; host or cells: E. coli", "details": "in vitro translated 35S labeled protein; GST alone as specificity control", "description": "A). Bak/Bcl-xL interactions measured in vitro. ^35S labeled in vitro translated Bak (lane 1) was mixed either with GST-Bcl-xL (lane 2) or GST (lane 3). The complexes were captured on glutathione-agarose beads, and bound ^35S labeled Bak protein was detected by electrophoresis on SDS polyacrylamide gels followed by autoradiography.\nThe beads were removed by centrifugation and the supernatants were incubated with GST or GST-Bcl-xL (final concentration […]) at 4° C. for 1 hour. The GST fusion proteins and any interacting proteins were recovered by incubation for 1 hour with an additional […] of GSH-agarose beads. The beads were washed twice with NP-40 lysis buffer followed by two washes with NP-40 lysis buffer without NP-40. Proteins were eluted from the beads by incubation in SDS-PAGE sample buffer at 100° C. for 5 min and loaded onto 4-20% SDS-polyacrylamide gels. Following electrophoresis, gels were fixed and incubated in a fluorography enhancing solution (Amplify; Amersham). The gels were dried and subjected to autoradiography at −70° C."}, "Bak": {"biological_target": "T2, Bak (Homo sapiens, UniProt Q16611)", "T2 construct": "diminished relative to full length Bak; host or cells: coupled transcription/translation in rabbit reticulocyte lysate", "T2 sequence (Q16611 1-211)": "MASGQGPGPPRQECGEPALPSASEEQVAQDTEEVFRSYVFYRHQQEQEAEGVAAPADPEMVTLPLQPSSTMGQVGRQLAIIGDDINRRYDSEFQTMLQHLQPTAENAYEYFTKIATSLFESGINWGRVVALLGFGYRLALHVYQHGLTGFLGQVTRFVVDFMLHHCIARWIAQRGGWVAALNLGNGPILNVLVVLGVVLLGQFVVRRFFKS", "experiment": "GST-PEM in vitro binding of 35S labeled Bak", "details": "GST fusion, in vitro translated 35S labeled Bak; GST alone as control", "text": "(§4) Complexes were captured with glutathione-agarose beads, washed, and bound proteins detected by polyacrylamide gel electrophoresis and autoradiography. […] Thus, the GD domain can mediate interaction not only with Bcl-xL but also Bak and Bax.\n(§5) Complexes were captured with glutathione-agarose beads, washed, and bound proteins detected by polyacrylamide gel electrophoresis and autoradiography."}, "Bax": {"biological_target": "T3, Bax (Homo sapiens, UniProt Q07812)", "T3 construct": "host or cells: coupled transcription/translation in rabbit reticulocyte lysate", "T3 sequence (Q07812 whole entry, the tested form may be a part)": "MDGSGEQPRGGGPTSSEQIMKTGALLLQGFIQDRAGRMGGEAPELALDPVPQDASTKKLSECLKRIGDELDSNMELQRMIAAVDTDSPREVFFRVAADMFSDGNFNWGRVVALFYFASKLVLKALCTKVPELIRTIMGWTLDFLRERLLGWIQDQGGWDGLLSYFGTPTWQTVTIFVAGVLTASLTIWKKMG", "experiment": "GST-PEM in vitro binding of 35S labeled Bax", "details": "GST fusion, in vitro translated 35S labeled Bax; GST alone as control", "text": "as §4, §5"}, "Bip1a": {"biological_target": "T4, Bip1a (Homo sapiens, UniProt Q13323)", "T4 construct": "host or cells: coupled transcription/translation in rabbit reticulocyte lysate", "T4 sequence (Q13323 1-160)": "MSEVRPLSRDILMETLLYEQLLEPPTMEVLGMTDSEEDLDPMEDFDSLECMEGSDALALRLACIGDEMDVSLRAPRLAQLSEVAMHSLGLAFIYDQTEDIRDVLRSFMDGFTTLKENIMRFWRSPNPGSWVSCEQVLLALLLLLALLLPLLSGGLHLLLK", "experiment": "GST-PEM in vitro binding of 35S labeled Bip1a", "details": "GST fusion, in vitro translated 35S labeled Bip1a", "text": "as §4, §5"}, "Bcl-xL [6]": {"biological_target": "T1, Bcl-xL", "experiment": "GST-PEM in vitro binding of 35S labeled Bcl-xL", "set-up": "made in house; host or cells: E. coli", "details": "GST fusion, in vitro translated 35S labeled Bcl-xL; GST alone as control", "text": "as §4, §5"}, "GST-Bcl-xL": {"biological_target": "T5, GST-Bcl-xL (Homo sapiens, UniProt Q07817)", "T5 construct": "made in house; host or cells: E. coli", "T5 sequence (Q07817 whole entry)": "as the sequence (Q07817 whole entry) above", "experiment": "High through-put screening assay 1: biotinylated GD peptide on GST-Bcl-xL-coated multiwell plates, ELISA", "format": "binding", "details": "ELISA with streptavidin-conjugated HRP, 4° C. for 1 hour", "description": "Multiwell plates (Nunc Maxisorp) were coated with GST-Bcl-xL and blocked with 1% normal goat serum in PBS. A N-biotinylated GD peptide corresponding to Bak (71-89; […] [SEQ ID NO: 35]) was added and the plates were incubated at 4° C. for 1 hour. The plates were washed to remove unbound GD peptide and the amount of bound peptide was determined by ELISA using streptavidin-conjugated horse radish peroxidase. Coating with GST-Bcl-xL was omitted in the control wells.\nAccording to the present example, multiwell plates coated with GST-Bcl-xL were incubated with a labeled GD domain peptide probe. […] More specifically, wells in a multiwell plate were coated without (control) or with GST-Bcl-xL and then incubated with a GD domain peptide derived from the Bcl-2 homolog Bak (amino acid residues 71-89; […] [SEQ ID NO: 35]). The peptide was labeled by biotinylation at the amino terminus to allow detection and quantitation of bound peptide using streptavidin-conjugated horse radish peroxidase (HRP) in a standard ELISA procedure. […] Compounds that antagonize GD domain-mediated interactions can be conveniently identified using this assay by adding candidate compounds to the wells during the binding step. Those compounds that disrupt the interaction of the biotinylated GD domain peptide with GST-Bcl-xL will cause a decrease in the ELISA signal."}, "[7]": {"biological_target": "T6, Bcl-xL/Bak GD domain interaction (Homo sapiens, UniProt Q07817)", "T6 construct": "made in house; host or cells: E. coli", "T6 sequence (Q07817 whole entry, the tested form may be a part)": "as the sequence (Q07817 whole entry) above", "experiment": "High through-put screening assay 2: GST-Bcl-xL binding to biotinylated Bak GD peptide on neutravidin wells, ELISA", "details": "peptide bound to neutravidin-coated wells, ELISA with anti-GST-HRP", "description": "An assay was developed to screen for compounds that block the interaction between the Bcl-2 homologs, Bcl-xL and Bak. A synthetic peptide corresponding to the Bak GD binding domain ([…] [SEQ ID NO: 35]) was biotinylated and bound to wells coated with neutravidin. […] Peptides encompassing the GD domain from various Bcl-2 family members were tested for their ability to block GD domain-mediated interactions in this assay. Peptides tested: Bcl-w [SEQ ID NO: 39] […] ([…]), Bak [SEQ ID NO: 36]([…]), Bak-15 [SEQ ID NO: 37] ([…]), Bak-15L78A [SEQ ID NO: 38] ([…]), control (no peptide).\nIn a modification of the high through-put screening assay 1 described herein, wells are coated with an avidin derivative, to which a biotinylated peptide/protein is bound. A GST-fusion protein that can interact with the biotinylated peptide/protein is added in the presence or absence of test compounds. The plates are incubated and then unbound GST-fusion protein is removed by washing. The amount of GST-fusion protein specifically bound to the tethered peptide/protein is determined by ELISA using an anti-GST antibody conjugated to horse radish peroxidase. Compounds which block the interaction between the biotinylated peptide/protein and the GST-fusion protein cause a decrease in the ELISA signal.\nIn a specific example, an assay was developed to screen for compounds that block the interaction between the Bcl-2 homologs, Bcl-xL and Bak. A biotinylated Bak GD domain peptide (amino acid residues 71-89; N-biotinylated […] [SEQ ID NO: 35]) was bound to wells coated with neutravidin. […] Using this assay, peptides from Bcl-2 family members were identified which block the Bcl-xL/Bak GD domain interaction (FIG. 10)."}}, "note": "Ends that are not written are not given here. * marks the point of attachment. Biotin = O=C1N[C@H]2[C@H](CS[C@H]2CCCCC(=O)*)N1"}
{"substance": "Bak: Bcl-2 related cell death protein, HA-epitope tagged, expressed from plasmid or in vitro translated", "values": [{"measurement": "cell killing activity (reduction in number of blue β-gal expressing cells)", "setting": "Rat-1 cells", "value": "large reduction in the number of blue (β-gal expressing) cells"}, {"measurement": "cell killing (number of blue cells)", "setting": "[1]", "value": "greatly reduced the number of blue cells"}, {"measurement": "cell killing (number of blue cells)", "setting": "[2]", "value": "can kill human tumor cells"}, {"measurement": "cell killing (number of blue cells)", "setting": "[3]", "value": "can kill human tumor cells"}, {"measurement": "interaction with Bcl-xL in transfected cells", "setting": "Bcl-xL [4]", "value": "specific Bak/Bcl-xL interaction could also be detected"}, {"measurement": "binding to GST-Bcl-xL in vitro", "setting": "Bcl-xL [5]", "value": "binds"}]}
{"substance": "GST-PEM: portion of Bak (PEM, residues 58-103) encompassing the GD domain fused to GST, bacterially expressed", "values": [{"measurement": "interaction with Bak (homodimerization)", "setting": "Bak", "value": "interact specifically"}, {"measurement": "interaction with Bax (heterodimerization)", "setting": "Bax", "value": "interact specifically"}, {"measurement": "interaction with Bip1a", "setting": "Bip1a", "value": "does not interact"}, {"measurement": "interaction with Bcl-xL", "setting": "Bcl-xL [6]", "value": "interact specifically"}]}
{"substance": "MGQVGRQLAIIGDDINRRY (Biotin-MGQVGRQLAIIGDDINRRY) [SEQ ID NO: 35, Bak GD domain peptide, amino acid residues 71-89, biotinylated at the amino terminus]", "values": [{"measurement": "binding of biotinylated peptide to GST-Bcl-xL-coated wells", "setting": "GST-Bcl-xL", "value": "specifically interacts in a concentration-dependent manner"}, {"measurement": "binding of GST-Bcl-xL to the tethered biotinylated peptide", "setting": "[7]", "value": "bind specifically"}]}
